Experimental findings from patent US12715902B2 (dated 2026) are described below.

Experiment in all cases: cytokine release
The target of assay [1] is T1, ATM G2695V peptide on HLA-A*03:01 (human).
T1 peptide: LAGVVNLPK
The text has this:
(§1) To confirm the specificity and activity of nucleic acid encoding TCRs against ATM and ARID1A, each of the codon optimized nucleic acids were introduced into donor T cells. The chimeric TCR-transduced T cells (TRBV9*01+TRAV14/DV4 chimeric TCR) were co-cultured with dendritic cells expressing wildtype ATM or mutated forms of ATM (G2695V, G2695A, G2695C, or G2695S). The chimeric TCR-transduced T cells (TRBV25-1+TRAV20 chimeric TCR) were co-cultured with dendritic cells expressing wildtype ARID1A or ARID1A H1960fs. After overnight incubation, the supernatant was assessed for production of interferon-gamma using an ELISA. […] See FIGS. 9A and 9B, respectively.

In assay [2] the target is T2, ATM G2695A peptide on HLA-A*03:01 (human).
T2 peptide: LAGAVNLPK
Source text: as §1

For assay [3], the target named is T3, ATM G2695C peptide on HLA-A*03:01 (human).
T3 peptide: LAGCVNLPK
Source text: as §1

Assay [4] has as its target T4, ATM G2695S peptide on HLA-A*03:01 (human).
T4 peptide: LAGSVNLPK
Source text: as §1

Assay [5] has as its target T5, ATM wild type (glycine at 2695) peptide on HLA-A*03:01 (human).
T5 peptide: LAGGVNLPK
Source text: as §1

B1: TRBV9*01+TRAV14/DV4 TCR (TCR, V domains shown)
Valpha: AQKITQTQPGMFVQEKEAVTLDCTYDTSDQSYGLFWYKQPSSGEMIFLIYQGSYDEQNATEGRYSLNFQKARKSANLVISASQLGDSAMYFCAMREQGAQKLVFGQGTRLTINP
Vbeta: DSGVTQTPKHLITATGQQVTLRCSPRSGDLSVYWYQQSLDQGLQFLIQYYNGEERAKGNILERFSAQQFPDLHSELNLSSLELGDSALYFCASSAAVHYGYTFGSGTRLTVV
For B1, the binding result in assay [1] is reported as “recognises”; in assay [2], “recognises”; in assay [3], “recognises”; in assay [4], “recognises”; in assay [5] it was “no recognition”.
